Laboratory results taken from patent US20220233638A1 (WASEDA UNIVERSITY, published 2022).

Target: T1, GST-DLA88-α3 (dog, UniProt P18466 207-299)
T1 construct: also called recombinant protein containing only α3 domain of DLA88; not shown: glutathione S-transferase (GST) tag of expression vector pGEX-6p-1
Assay: biolayer interferometry (BLItz); GST-DLA88-α3 immobilised on anti-GST sensor, GST-LILRB3 D1/D2 loaded as sample
Procedure: The recombinant proteins DLA88-α3 and LILRB3-D1/D2 used in (b) were separately incubated at 37° C. for 2 hr, and immobilized on the BLI sensor for 5 min using DLA88-α3 as a ligand. LILRB3-D1/2D was loaded as a sample at the indicated concentrations.
BLItz™ ([…]) was used to analyze the dynamics between DLA88-α3 and LILRB3-D1/D2. A GST sensor and an anti-GST antibody-immobilized sensor ([…]) were used. GST-DLA88-α3 and GST-LILRB3-D1/D2 were separately incubated at 37° C. for 2 hr. GST-DLA88-α3 was immobilized on the GST sensor as a ligand molecule for 5 min and completely covered with the GST sensor. After washing with PBS-T (5% Tween-PBS) for 30 sec, GST-LILRB3 D1/D2 was loaded as a sample while trembling for 2 min. In addition to association kinetics, dissociation kinetics was evaluated in PBS-T buffer for 2 min. The recombinant protein GST-GFP was used as a control.

T1 sequence (P18466 other isoform, or with tags, fused parts or gaps): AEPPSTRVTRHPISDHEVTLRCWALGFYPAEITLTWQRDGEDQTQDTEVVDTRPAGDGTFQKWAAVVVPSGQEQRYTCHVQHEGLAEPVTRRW

B1: GST-LILRB3-D1/D2 (receptor)
chain: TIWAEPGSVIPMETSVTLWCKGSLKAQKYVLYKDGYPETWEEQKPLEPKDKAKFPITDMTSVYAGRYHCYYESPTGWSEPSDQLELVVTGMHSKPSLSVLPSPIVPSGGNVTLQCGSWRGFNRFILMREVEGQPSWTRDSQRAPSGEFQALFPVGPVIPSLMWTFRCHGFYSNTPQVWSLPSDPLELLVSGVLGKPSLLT
notes: also called LILRB3-D1/2D; not shown: glutathione S-transferase (GST) tag of expression vector pGEX-6p-1
**Q.** For B1, which Kd is on record?
**A.** 6.54 µM
